Non-standard residues stand in square brackets, D forms with d. hArg = N=C(N)NCCCC[C@H](N)C(=O)O; Cit = NC(=O)NCCC[C@H](N)C(=O)O; Orn = NCCC[C@H](N)C(=O)O
Target: T1, murine E^d MHC class II allele (Mus musculus, UniProt P01904+P01915)
T1 sequence (P01904 26-255): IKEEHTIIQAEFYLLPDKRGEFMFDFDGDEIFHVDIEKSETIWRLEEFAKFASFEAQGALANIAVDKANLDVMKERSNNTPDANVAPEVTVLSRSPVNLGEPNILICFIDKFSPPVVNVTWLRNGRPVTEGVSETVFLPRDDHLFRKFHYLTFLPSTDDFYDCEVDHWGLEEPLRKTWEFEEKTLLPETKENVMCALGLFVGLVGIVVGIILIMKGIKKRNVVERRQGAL
T1 sequence (P01915 27-264 limits assumed): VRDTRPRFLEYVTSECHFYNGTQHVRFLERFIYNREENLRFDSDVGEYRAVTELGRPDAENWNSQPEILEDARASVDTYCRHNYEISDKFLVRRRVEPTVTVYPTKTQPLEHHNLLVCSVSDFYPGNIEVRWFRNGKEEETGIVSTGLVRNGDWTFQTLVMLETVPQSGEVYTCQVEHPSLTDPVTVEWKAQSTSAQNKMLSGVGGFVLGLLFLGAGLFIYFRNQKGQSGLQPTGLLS
Assay: simultaneous assay, E^d allele (A20 APC, G28.C9 T hybridoma, HEL106-116; HT-2 [3H]TdR readout)
Assay type: cell-based
Set-up: The A20 and CH27 B cell lymphoma lines express H-2^d and H-2^k alleles, respectively; endogenous in cells; host or cells: A20 B cell lymphoma (mitomycin C-treated or paraformaldehyde-fixed)
In short: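 Read-out is [3H]TdR incorporation into HT-2 indicator cells exposed to supernatant from a 24 h primary culture. That culture combined mitomycin C-treated APC (5×10^6 cells/mL, 0.025 mg/mL mitomycin C, 20 min, 37° C), peptide, effector compound and T hybridoma, all added at once.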

[1] = Table 4, AE109 homolog 64 μM, supernatant 1:2
[2] = Table 10, AE peptide 16 μM (second value), supernatant 1:2
[3] = Table 10, AE peptide 64 μM (first value), supernatant 1:2
[4] = Table 1, AE peptide 16 μM (second value), 0.4 μM HEL106-116, supernatant 1:4
[5] = Table 1, AE peptide 64 μM (first value), 0.4 μM HEL106-116, supernatant 1:4
[6] = Table 8, AE peptide 4 μM (third), supernatant 1:8
[7] = Table 8, AE peptide 16 μM (second), supernatant 1:8
[8] = Table 8, AE peptide 64 μM (first), supernatant 1:8

Row | Substance | Times Baseline Response, E^d [1] | Times Baseline Response, E^d [4] | Times Baseline Response, E^d [5] | also measured
1 | Ac-Y Q MKLPKSAK-NH2 [AE138] | 0.7 |  |  | 
2 | Ac-Y Y MKLPKSAK-NH2 [AE140] | 0.7 |  |  | 
3 | Ac-YAMKLPKSAK-NH2 [AE121] | 1.1 |  |  | Times Baseline Response, E^d [2]: 1.9; Times Baseline Response, E^d [3]: 2.7
4 | Ac-YRM-NH2 [AE118] |  | 0.6 | 1.0 | 
5 | Ac-YRMK-NH2 [AE117] |  | 1.0 | 2.3 | 
6 | Ac-YRMKL hydrP KSAK-NH2 (Ac-YRMKL[hydrP]KSAK-NH2) [AE143] |  |  |  | Times Baseline Response, E^d [6]: 8.0; Times Baseline Response, E^d [7]: 19.6,; Times Baseline Response, E^d [8]: 19.4,
7 | Ac-YRMKL-NH2 [AE116] |  | 2.1 | 7.1 | 
8 | Ac-YRMKLP-NH2 [AE115] |  | 5.7 | 19.9 | 
9 | Ac-YRMKLPK-NH2 [AE113] |  | 23.1 | 36.3 | Times Baseline Response, Ed (Table 3, AE peptide 64 μM, supernatant 1:4): 12.3
10 | Ac-YRMKLPKSAK-NH2 [AE109] | 3.3 | 20.8 | 39.3 | Times Baseline Response, E^d (Table 2, AE peptide 64 μM, 0.05 μM HEL106-116, supernatant 1:2): 25.5; Times Baseline Response, E^d [6]: 7.4; Times Baseline Response, E^d [7]: 17.6,; Times Baseline Response, E^d [8]: 16.4,; Times Baseline Response, E^d [2]: 24.3; Times Baseline Response, E^d [3]: 27.5
11 | Ac-Y[Cit]MKLPKSAK-NH2 [AE131] | 2.8 |  |  | Times Baseline Response, E^d (Table 15, AE peptide 16 μM, supernatant 1:4): 1.6
12 | Ac-Y[Orn]MKLPKSAK-NH2 [AE130] | 0.9 |  |  | 
13 | Ac-Y[hArg]MKLPKSAK-NH2 [AE132] | 1.8 |  |  | Times Baseline Response, E^d (Table 16, AE peptide 4 μM, supernatant 1:8): 3.9
14 | Ac-l RMKLPK-NH2 [AE160] |  |  |  | Times Baseline Response, E^d (Table 11, AE peptide 64 μM, supernatant 1:8): 11.0
15 | YRMKLPKSAKPVSQMR [AE101] |  | 4.9 | 13.6 | 

From patent US6835382B2, “Ii peptide therapeutics to enhance antigen presentation” (University of Massachusetts, priority 1996, dated 2004)
